The target in assay [1] is bacteriophage P22 coat protein (CP), assembled as P22 virus-like particle capsid (bacteriophage P22) (UniProt P26747). Put plainly: SEC-MALS; expanded (EX) VLPs made from PC by 3.5 mM SDS for 5 min at room temperature, then ultracentrifuged twice; also SDS-PAGE and TEM.
Assay [2] has the same target. Description: SEC-MALS; procapsid (PC) VLPs from co-expression of CP and AdhD-SP in E. coli, purified; also SDS-PAGE and TEM; cargo number calculated from the molar mass of the particles; 50 mM sodium phosphate, 100 mM sodium chloride, pH 7.0.

Chain of UniProt P26747 (P26747 whole entry): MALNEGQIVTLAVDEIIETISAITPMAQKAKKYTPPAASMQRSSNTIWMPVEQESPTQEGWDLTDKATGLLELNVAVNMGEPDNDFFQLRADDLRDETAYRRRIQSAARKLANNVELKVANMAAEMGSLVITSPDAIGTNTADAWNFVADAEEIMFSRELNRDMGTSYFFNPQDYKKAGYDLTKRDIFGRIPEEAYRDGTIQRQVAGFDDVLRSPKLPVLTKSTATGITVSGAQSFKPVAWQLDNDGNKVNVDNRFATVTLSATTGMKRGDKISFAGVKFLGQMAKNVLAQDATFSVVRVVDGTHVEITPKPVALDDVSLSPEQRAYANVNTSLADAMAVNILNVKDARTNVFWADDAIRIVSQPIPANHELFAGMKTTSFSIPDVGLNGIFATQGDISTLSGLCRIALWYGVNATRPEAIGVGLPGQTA

As to “alcohol dehydrogenase-D (AdhD) fused to P22 scaffolding protein (AdhD-SP) (enzyme)”, in assay [1], the stoichiometry N (AdhD-SP per VLP) was 174. In addition, in assay [2], the stoichiometry N (AdhD per capsid) was 204.

Source of the values: article PMC8131759.
